One experiment has as its system Jurkat. The experiment can be described thus: Inhibition of Jurkat cell adhesion to plasma fibronectin and its fragments. The experiment is classed as cell-based, human. As to the method:
(§1) Antibodies that would alter cell adhesion to purified plasma fibronectin, tryptic fragments and CS peptides were identified as previously described (Wayner and Carter, 1987). […] The plates were blocked with PBS supplemented with 10 mg/ml heat denatured BSA (HBSA). T lymphocyte or HT1080 cells were labeled with Na2 ^51CrO4 (50 μlCi/ml for 2–4 hr), washed, and 5×10^4 HT1080 or cultured T cells or […] were incubated with hybridoma culture supernatants (1:2 dilution in PBS supplemented with 1 mg/ml heat denatured BSA) or control myeloma cell culture supernatant for 15 minutes at room temperature. The cells were allowed to adhere to the protein-coated surfaces in the presence of the hybridoma supernatants for 15–30 minutes (HT1080) or 2–4 hours (lymphocytes) at 37° C. Non-adherent cells were removed by washing with PBS, and the adherent cells were dissolved in SDS/NaOH and bound ^51Cr-cpm were quantitated in a gamma counter.

Experiment [1] deals with T lymphocytes (Jurkat or Molt 4 cells). The experiment can be described thus: T lymphocyte adhesion to plasma fibronectin, tryptic fragments and CS peptides. Format: cell-based, human. As to the method: as §1
Human plasma fibronectin was a generous gift from Drs. Horowitz and R. Schulman (New York Blood Center, N.Y.). […] Two overlapping peptides spanning the initial 48 residues of the IIICS region of human fibronectin (CS-1 and CS-2) were synthesized and coupled to rabbit IgG as described (Humphries et al., 1986, and Humphries et al., 1987, J. Biol. Chem. 262:6886–6892).

Experiment [2] relates to LAD (B) lymphocyte adhesion to HUVE monolayers. Kind of experiment: Endothelial cell adhesion assay, LAD cells on HUVE monolayers. Conditions: Table XI. The experiment is classed as cell-based, human. How it is done:
(§2) HUVEs were incubated with IL-1 β (1 ng/ml) or in some experiments with TNF α (10 ng/ml) for 6–24 hours. At the end of this incubation the HUVE monolayers were washed and used in the adhesion assay.
(§3) Human umbilical vein endothelial cells (HUVEs) were cultured in 48 well plates as described (supra). To measure adherence of lymphocytes to HUVE monolayer cultures, lymphocytes were labeled with Na2 ^51CrO4 (50 μCi/ml) for 2–4 hours), washed, and then 10^5 lymphocytes were incubated with HUVE monolayers in the presence or absence of inhibitory antibodies or CS-1 derived peptides. The lymphocytes were allowed to adhere for 30 minutes at 37°. Non-adherent cells were subsequently removed by washing with PBS, and the adherent cells were dissolved in SDS/NaOH. Bound ^51Cr-cpm were quantitated in a gamma counter. In some experiments, endothelial cells were activated prior to the adhesion assay by incubating with IL-1 β (1 ng/ml) or […] (10 ng/ml) for 6–24 hours in defined CS-100 media (Cell Systems, Seattle, Wash.).

Experiment [3] has as its system Ramos (B) lymphocyte adhesion to HUVE monolayers. The experiment can be described thus: Endothelial cell adhesion assay, Ramos cells on HUVE monolayers. Conditions: Table XI. The experiment is classed as cell-based, human. As to the method: as §2, §3
For experiment [4], the system named is Jurkat (T) lymphocyte adhesion to HUVE monolayers. Kind of experiment: Endothelial cell adhesion assay, Jurkat cells on HUVE monolayers. The experiment is classed as cell-based, human. Particulars: Table XI. How it is done:
as §2, §3

The subject of the next experiment is fibroblasts. Kind of experiment: Inhibition of fibroblast adhesion to plasma fibronectin. The experiment is classed as cell-based. How it is done:
as §1

For a further experiment, the system named is K562-1 cells. Kind of experiment: Inhibition of K562 cell adhesion to plasma fibronectin and fragments. Format: cell-based, human.
The subject of a further experiment is Jurkat cells. Kind of experiment: Jurkat cell adhesion to surfaces coated with peptide-rsa conjugates. The experiment is classed as cell-based, human. Conditions: Jurkat; FIG. 12; 5 ug/ml peptide; 30 min. How it is done: ^51Cr-labeled Jurkat cells ([…]) were incubated on surfaces coated with varying concentrations of peptide-rsa conjugates starting at 50 ug/ml (w/v) fragment or peptide (based on peptide not peptide-conjugate weight). […] (No adhesion=no measurable adhesion above negative controls.)
(§4) Adhesion of various hematopoetic cell lines to CS-1 (open bars; FIG. 12) or LDV minimal peptide-coated surfaces (cross-hatched bars; FIG. 12) was tested as follows: Jurkat (T lymphoblastoid), A375 (melanoma), U937 (monocytic), Ramos (B lymphoblastoid), and ST-1 (EBV transformed B lymphoblastoid) cells were allowed to adhere to CS-1-rsa or LDVPST-rsa (5 ug/ml peptide) coated surfaces for 30 min at 37° C. At the end of this time the non-adherent cells were washed off and the adherent cells were solubilized in NaOH/SDS and quantitated in a gamma counter. The results are expressed as bound counts per minute.

In a further experiment the test system is A375 melanoma cells. Kind of experiment: A375 melanoma cell adhesion to peptide-rsa coated surfaces. Format: cell-based, human. Conditions: FIG. 12, 5 ug/ml peptide, 30 min. As to the method: as §4
For experiment [5], the target named is T1, integrin α5β1 (human, UniProt P08648 42-1049; P05556 21-798). The experiment can be described thus: cell-based or functional assay.
T1 sequence (P08648 42-1049, chain 1 of 2): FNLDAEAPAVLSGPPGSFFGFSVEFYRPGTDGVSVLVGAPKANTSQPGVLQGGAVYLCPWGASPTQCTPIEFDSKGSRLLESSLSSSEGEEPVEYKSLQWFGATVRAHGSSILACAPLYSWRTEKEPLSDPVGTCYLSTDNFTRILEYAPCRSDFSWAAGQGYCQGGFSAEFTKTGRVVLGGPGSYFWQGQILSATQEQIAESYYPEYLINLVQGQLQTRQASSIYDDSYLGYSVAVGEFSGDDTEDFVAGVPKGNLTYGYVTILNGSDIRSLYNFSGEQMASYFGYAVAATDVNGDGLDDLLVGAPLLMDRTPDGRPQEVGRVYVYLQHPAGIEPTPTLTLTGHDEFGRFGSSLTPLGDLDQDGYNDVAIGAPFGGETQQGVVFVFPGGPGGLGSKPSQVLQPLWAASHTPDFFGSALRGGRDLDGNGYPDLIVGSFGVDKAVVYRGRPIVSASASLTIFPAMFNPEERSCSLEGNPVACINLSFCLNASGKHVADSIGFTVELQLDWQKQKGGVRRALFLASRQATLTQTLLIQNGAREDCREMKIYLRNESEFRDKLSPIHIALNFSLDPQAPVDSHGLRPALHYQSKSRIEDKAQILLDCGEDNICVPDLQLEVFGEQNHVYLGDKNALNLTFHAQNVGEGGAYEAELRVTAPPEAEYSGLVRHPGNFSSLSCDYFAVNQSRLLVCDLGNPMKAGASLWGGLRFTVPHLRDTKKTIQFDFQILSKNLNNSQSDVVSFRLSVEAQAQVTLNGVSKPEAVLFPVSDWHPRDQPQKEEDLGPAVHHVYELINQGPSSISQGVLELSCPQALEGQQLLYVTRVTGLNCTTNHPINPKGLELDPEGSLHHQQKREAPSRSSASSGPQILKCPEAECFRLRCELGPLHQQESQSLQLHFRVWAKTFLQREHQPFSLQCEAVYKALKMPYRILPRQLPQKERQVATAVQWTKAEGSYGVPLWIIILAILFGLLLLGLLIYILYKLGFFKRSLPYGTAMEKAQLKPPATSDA
T1 sequence (P05556 21-798, chain 2 of 2): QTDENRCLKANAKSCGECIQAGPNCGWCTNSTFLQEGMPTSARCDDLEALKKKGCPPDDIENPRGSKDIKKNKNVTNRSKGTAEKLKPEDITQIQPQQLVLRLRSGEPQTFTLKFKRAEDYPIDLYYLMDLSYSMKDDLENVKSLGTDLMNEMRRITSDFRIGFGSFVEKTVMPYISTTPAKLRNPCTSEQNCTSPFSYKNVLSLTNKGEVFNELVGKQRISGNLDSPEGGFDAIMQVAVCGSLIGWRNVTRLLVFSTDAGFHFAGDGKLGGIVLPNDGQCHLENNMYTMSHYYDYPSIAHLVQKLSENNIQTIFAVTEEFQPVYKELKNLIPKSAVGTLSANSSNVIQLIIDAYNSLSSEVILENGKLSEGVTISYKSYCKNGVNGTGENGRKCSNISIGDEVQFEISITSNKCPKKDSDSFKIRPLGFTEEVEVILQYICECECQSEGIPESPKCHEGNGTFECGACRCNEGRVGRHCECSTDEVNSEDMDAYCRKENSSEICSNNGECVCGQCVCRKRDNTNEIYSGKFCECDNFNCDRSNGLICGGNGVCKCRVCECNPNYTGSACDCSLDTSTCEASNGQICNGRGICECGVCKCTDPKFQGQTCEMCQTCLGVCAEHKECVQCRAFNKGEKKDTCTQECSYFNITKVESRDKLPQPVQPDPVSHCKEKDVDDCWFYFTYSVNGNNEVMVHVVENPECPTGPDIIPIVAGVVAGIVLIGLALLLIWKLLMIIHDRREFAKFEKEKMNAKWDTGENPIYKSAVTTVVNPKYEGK
Experiment [6] concerns the target T1, integrin α5β1. Kind of experiment: adhesion of T lymphocytes to 80 kDa-coated plastic with P1D6; IgG control 8580.
Experiment [7] addresses T1, integrin α5β1. Kind of experiment: adhesion of T lymphocytes to 38 kDa-coated plastic with P1D6; IgG control 22680.
In experiment [8] the target is T1, integrin α5β1. Kind of experiment: adhesion of T lymphocytes to CS-2 (rabbit IgG conjugate)-coated plastic with P1D6; IgG control […].
Experiment [9] addresses T1, integrin α5β1. The experiment can be described thus: adhesion of T lymphocytes to CS-1 (rabbit IgG conjugate)-coated plastic with P1D6; IgG control 44339.
The target of experiment [10] is T1, integrin α5β1. The experiment can be described thus: adhesion of 51Cr-PBL to plasma fibronectin-coated plastic with hybridoma supernatant; SP2 control 100%.
For experiment [11], the target named is T1, integrin α5β1. Kind of experiment: adhesion of 51Cr-HT1080 cells to plasma fibronectin-coated plastic with hybridoma supernatant; SP2 control 100%.
For experiment [12], the target named is T1, integrin α5β1. Kind of experiment: adhesion of 51Cr-Jurkat cells to plasma fibronectin-coated plastic with hybridoma supernatant; SP2 control 100%.
In experiment [13] the target is T1, integrin α5β1. Kind of experiment: adhesion of 51Cr-Molt 4 cells to plasma fibronectin-coated plastic with hybridoma supernatant; SP2 control 100%.
The target in experiment [14] is T2, integrin receptor α4β1 (human, UniProt P13612 34-1032; P05556 21-798).
T2 construct: whole, on cells; also called α4β1 extracellular matrix receptor; VLA 4
T2 sequence (P13612 34-1032, form in doubt, chain 1 of 2): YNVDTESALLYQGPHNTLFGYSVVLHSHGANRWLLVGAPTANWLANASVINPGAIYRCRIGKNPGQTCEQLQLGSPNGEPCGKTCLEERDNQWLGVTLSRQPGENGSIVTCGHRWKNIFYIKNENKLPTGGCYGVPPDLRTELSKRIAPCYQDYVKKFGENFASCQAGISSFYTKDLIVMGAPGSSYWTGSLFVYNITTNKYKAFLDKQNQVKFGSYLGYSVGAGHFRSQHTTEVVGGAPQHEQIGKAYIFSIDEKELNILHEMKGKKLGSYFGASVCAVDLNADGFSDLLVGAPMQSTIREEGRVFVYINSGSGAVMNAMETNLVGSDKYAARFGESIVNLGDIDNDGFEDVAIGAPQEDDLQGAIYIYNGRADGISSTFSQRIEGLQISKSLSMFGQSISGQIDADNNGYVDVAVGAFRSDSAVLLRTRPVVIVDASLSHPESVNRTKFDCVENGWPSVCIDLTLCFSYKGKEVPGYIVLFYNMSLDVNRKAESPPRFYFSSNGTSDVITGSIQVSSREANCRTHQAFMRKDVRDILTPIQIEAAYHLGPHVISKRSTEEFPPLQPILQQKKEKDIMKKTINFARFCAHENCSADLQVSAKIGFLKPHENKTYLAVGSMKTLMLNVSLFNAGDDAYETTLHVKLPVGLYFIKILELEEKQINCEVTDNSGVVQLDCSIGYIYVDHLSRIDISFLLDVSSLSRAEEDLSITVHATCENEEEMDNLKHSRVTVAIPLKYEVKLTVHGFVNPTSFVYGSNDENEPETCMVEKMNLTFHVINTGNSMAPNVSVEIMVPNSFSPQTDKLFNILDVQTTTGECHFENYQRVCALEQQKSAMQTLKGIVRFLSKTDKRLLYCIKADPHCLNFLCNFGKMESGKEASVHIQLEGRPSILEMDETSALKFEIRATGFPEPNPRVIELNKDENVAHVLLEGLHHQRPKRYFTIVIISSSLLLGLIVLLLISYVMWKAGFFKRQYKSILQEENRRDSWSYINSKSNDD
T2 sequence (P05556 21-798, form in doubt, chain 2 of 2): as the sequence (P05556 21-798, chain 2 of 2) above
Kind of experiment: adhesion of Jurkat and Molt 4 cells to coated fragments.

Experiment [15] has as its target T2, integrin receptor α4β1. The experiment can be described thus: T lymphocyte adhesion to coated fragments.

We go through 5 molecules from US7238668B1, “Inhibition of lymphocyte adherence with CS-1-peptides and fragments thereof” (Fred Hutchinson Cancer Research Center, priority 1989, dated 2007).

Ends that are not written are not given here.

On to “Arg-Gly-Asp-Ser (RGDS) [reference compound]”, for which, in the experiment on Jurkat (1 mg/ml), the “Inhibition of Jurkat cell adhesion to intact fibronectin” value came out at 50%. Also, the “Inhibition of Jurkat cell adhesion to the 80 kDa fragment” value in the experiment on Jurkat (1 mg/ml) came to 100%. In addition, the “Effect on Jurkat cell adhesion to the 38 kDa fragment” value in the experiment with Jurkat (up to 1 mg/ml) is reported as “unaffected”. Besides, the entries for the “Inhibition of adhesion to plasma fibronectin” value (in experiment [1] (Molt 4 or Jurkat cells); in the experiment with fibroblasts; with K562-1 cells) were 50–70%, 80–90% and 100%, respectively. The “Adhesion (cpm) +IL-1β” value was determined as 102076 cpm in experiment [2] (IL-1β activated HUVE, no peptide 71408); 28104 cpm in experiment [3] (IL-1β activated HUVE, no peptide 12936); 357616 cpm in experiment [4] (IL-1β activated HUVE, no peptide 314848). Further, the “Adhesion (cpm) Basal” value in experiment [2] (basal HUVE, no peptide 44860) was found to be 70652 cpm; in experiment [3] (basal HUVE, no peptide 2724), 16920 cpm; in experiment [4] (basal HUVE, no peptide 161092), 298688 cpm.

As for “LDVPST-RSA: LDVPST conjugated to rabbit serum albumin (also: conjugated to rabbit serum albumin, site not given here)”, the “Cell adhesion to conjugate-coated surfaces” value in the experiment on Jurkat cells is “only slightly”; in the experiment with A375 melanoma cells, “adhered”.

In the case of monoclonal antibody P1D6, the Adhesion (cpm), Jurkat (T) on HUVE monolayers, +IL-1β; SP2 control 372159 with integrin α5β1 [5] stood at 418000 cpm. In addition, the Adhesion (cpm), Jurkat (T) on HUVE monolayers, Basal; SP2 control 83924 in the experiment with integrin α5β1 [5] amounted to 84000 cpm. The Adhesion (cpm), LAD (B) on HUVE monolayers, +IL-1β; SP2 control 104672 with integrin α5β1 [5] was found to be 114000 cpm. This molecule came in with an Adhesion (cpm), LAD (B) on HUVE monolayers, Basal; SP2 control 19542 with integrin α5β1 [5] of 15700 cpm. Further, the Adhesion (cpm), Ramos (B) on HUVE monolayers, +IL-1β; SP2 control 12157 in the experiment with integrin α5β1 [5] is 11200 cpm. In the experiment with integrin α5β1 [5], this molecule registered an Adhesion (cpm), Ramos (B) on HUVE monolayers, Basal; SP2 control 972 of 808 cpm. In addition, the T lymphocyte adhesion (unit not given) with integrin α5β1 [6] amounted to 202; with integrin α5β1 [7], 24900; with integrin α5β1 [8], 435; with integrin α5β1 [9], 42900. In addition, the Fibronectin Adhesion (% Control) with integrin α5β1 [10] stood at 43 % Control; with integrin α5β1 [11] it was 5 % Control; in the experiment with integrin α5β1 [12], 22 % Control; with integrin α5β1 [13], 18 % Control.

B1: 58 kDa tryptic fragment of plasma fibronectin (ligand, human, UniProt P02751-10 1589-2125, looked up)
chain: TAGPDQTEMTIEGLQPTVEYVVSVYAQNPSGESQPLVQTAVTTIPAPTDLKFTQVTPTSLSAQWTPPNVQLTGYRVRVTPKEKTGPMKEINLAPDSSSVVVSGLMVATKYEVSVYALKDTLTSRPAQGVVTTLENVSPPRRARVTDATETTITISWRTKTETITGFQVDAVPANGQTPIQRTIKPDVRSYTITGLQPGTDYKIYLYTLNDNARSSPVVIDASTAIDAPSNLRFLATTPNSLLVSWQPPRARITGYIIKYEKPGSPPREVVPRPRPGVTEATITGLEPGTEYTIYVIALKNNQKSEPLIGRKKTGQEALSQTTISWAPFQDTSEYIISCHPVGTDEEPLQFRVPGTSTSATLTGLTRGATYNVIVEALKDQQRHKVREEVVTVGNSVNEGLNQPTDDSCFDPYTVSHYAVGDEWERMSESGFKLLCQCLGFGSGHFRCDSSRWCHDNGVNYKIGEKWDRQGENGQMMSCTCLGNGKGEFKCDPHEATCYDDGKTYHVGEQWQKEYLGAICSCTCFGGQRGWRCDNCRR
notes: domain: Hep II and Fib II (58 kDa tryptic fragment)
Turning to B1, the “maximum cell attachment relative to the 38 kDa fragment” value with integrin receptor α4β1 [14] came to 30%.

B2: 38 kDa tryptic fragment of plasma fibronectin (ligand, human, UniProt P02751-8 1589-1968, looked up)
chain: TAGPDQTEMTIEGLQPTVEYVVSVYAQNPSGESQPLVQTAVTTIPAPTDLKFTQVTPTSLSAQWTPPNVQLTGYRVRVTPKEKTGPMKEINLAPDSSSVVVSGLMVATKYEVSVYALKDTLTSRPAQGVVTTLENVSPPRRARVTDATETTITISWRTKTETITGFQVDAVPANGQTPIQRTIKPDVRSYTITGLQPGTDYKIYLYTLNDNARSSPVVIDASTAIDAPSNLRFLATTPNSLLVSWQPPRARITGYIIKYEKPGSPPREVVPRPRPGVTEATITGLEPGTEYTIYVIALKNNQKSEPLIGRKKTDELPQLVTLPHPNLHGPEILDVPSTVQKTPFVTHPGYDTGNGIQLPGTSGQQPSVGQQMIFEEHGFR
notes: domain: Hep II and first 67 residues of IIICS (38 kDa tryptic fragment); also called CTCBD fragment
On to B2, for which the “Efficiency in mediating T lymphocyte adhesion, on a molar basis” value in [1] (compared with the 58 kDa fragment) is “three times more efficient than the 58 kDa fragment”. In addition, in the experiment with integrin receptor α4β1 [15], the “efficiency in mediating T lymphocyte adhesion relative to the 58 kDa fragment (molar basis)” value stood at 3 times.
